Assay [1] concerns the target T1, human CD123 expressed on cells (human, UniProt P26951 19-378). In words: cell-based or functional assay.
The target of assay [2] is T1, human CD123 expressed on cells. The assay is described as follows: cell-based or functional assay. This is another data set of the same source.
The target is the same in assay [3]. The assay is described as follows: cell-based or functional assay. The source holds these as a separate data set.
The target is the same in assay [4]. In words: cell-based or functional assay. This is another data set of the same source.
Assay [5] deals with T2, cynomolgus TCR/CD3 expressed on cells (cynomolgus).
T2 construct: whole, on cells; Native complex with CD3 chains; the cell type is named under assay or readout; also called cyno TCR/CD3; CD3/TCR expressed on HSC-F
The assay is described as follows: flow cytometry competition, HSC-F cells, competitor T017000099 (500 nM). In general terms: A flow cytometer gives signals particle by particle.

Assay [6] concerns the target T2, cynomolgus TCR/CD3 expressed on cells. The assay is described as follows: cell-based or functional assay.
For assay [7], the target named is T3, recombinant human CD123 protein (R&D Systems, 301-R3/CF) (human, UniProt P26951 19-305).
T3 construct: Bought recombinant His-tagged extracellular domain of human CD123; also called recombinant CD123; in house biotinylated-CD123 recombinant protein; not shown: His tag of the bought protein
T3 sequence: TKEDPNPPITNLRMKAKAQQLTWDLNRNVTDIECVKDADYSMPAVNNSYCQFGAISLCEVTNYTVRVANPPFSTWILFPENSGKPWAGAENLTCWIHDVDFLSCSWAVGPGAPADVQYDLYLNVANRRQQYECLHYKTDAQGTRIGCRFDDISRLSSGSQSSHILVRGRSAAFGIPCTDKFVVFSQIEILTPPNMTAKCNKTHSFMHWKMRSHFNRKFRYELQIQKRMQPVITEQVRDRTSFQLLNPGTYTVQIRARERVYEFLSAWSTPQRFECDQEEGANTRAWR
The assay is described as follows: SPR (ProteOn XPR36), CD123 immobilized.

Assay [8] addresses T4, cynomolgus CD123 expressed on HEK Flp-In cells (cynomolgus).
T4 construct: EHH61867.1; also called cyCD123; cyno CD123
T4 chain: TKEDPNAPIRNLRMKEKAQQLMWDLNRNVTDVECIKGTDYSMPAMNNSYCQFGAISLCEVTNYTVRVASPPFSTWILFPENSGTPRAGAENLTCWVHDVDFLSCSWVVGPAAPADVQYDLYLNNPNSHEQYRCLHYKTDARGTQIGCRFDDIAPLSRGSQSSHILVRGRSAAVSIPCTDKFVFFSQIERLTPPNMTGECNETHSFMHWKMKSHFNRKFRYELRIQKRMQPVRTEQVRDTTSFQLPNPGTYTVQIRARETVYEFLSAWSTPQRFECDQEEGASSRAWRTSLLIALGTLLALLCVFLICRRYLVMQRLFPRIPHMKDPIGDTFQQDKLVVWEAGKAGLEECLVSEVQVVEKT
In words: flow cytometry competition, HEK Flp-In cyCD123 cells, competitor A0110056A10-Alexa647 (0.9 nM).

Assay [9] has as its target T1, human CD123 expressed on cells. The assay is described as follows: flow cytometry competition, CHO Flp-In huCD123 cells, competitor A0110056A10-Alexa647 (0.9 nM).
The target is the same in assay [10]. In words: flow cytometry competition, MOLM-13 cells, competitor A0110056A10-Alexa647 (0.4 nM).
Assay [11] deals with T2, cynomolgus TCR/CD3 expressed on cells. The assay is described as follows: cell-based or functional assay. This is another data set of the same source.
The target of assay [12] is T5, human CD123 (human, UniProt P26951 19-378). The assay is described as follows: cell-based or functional assay.
For assay [13], the target named is T5, human CD123. In words: cell-based or functional assay. This is another data set of the same source.

B1: T017000135 (bispecific antibody)
chain: DVQLVESGGGLVQAGGPLRLSCAASGRTFSSYVMGWFRQAPGKEREFVAAIYWSNGKTQYTDSVKGRFTISGDNAKNTVYLQMNSLNPEDTAVYYCVADKDETGFRTLPIAYDYWGQGTLVTVSSGGGGSGGGGSGGGGSGGGGSGGGGSGGGGSGGGGSEVQLVESGGGLVQPGGSLRLSCVASGDVHKINFLGWYRQAPGKEREKVAHISIGDQTDYADSAKGRFTISRDESKNMVYLQMNSLKPEDTAVYFCRAFSRIYPYDYWGQGTLVTVSSGGGGSGGGGSGGGGSGGGGSGGGGSGGGGSGGGGSEVQLVESGGGLVQAGGSLRLSCAASGITSKINDMGWYRQTPGNYREWVASITATGTTNYRDSVKGRFTISRDNAKSTVYLQMNSLKPEDTTVYYCNTFPPISNFWGQGTLVTVSSA
For B1, in assay [1], the “EC50 (M), human IL-6 secretion during human T cell mediated killing of CD123 transfected adherent target cells” value stood at 5.9e-10 M. For the same molecule, in assay [2], the “% lysis, redirected human T cell mediated killing of KG1a cells, flow cytometry, E:T 10:1” value came out at 18% and the “EC50 (M), redirected human T cell mediated killing of KG1a cells, flow cytometry, E:T 10:1” value is 5.1e-11 M. Also, in assay [3], the “% lysis, redirected human T cell mediated killing of MOLM-13 cells, flow cytometry, E:T 10:1” value was determined as 33% and the “EC50 (M), redirected human T cell mediated killing of MOLM-13 cells, flow cytometry, E:T 10:1” value is 1.1e-11 M. Besides, the “EC50 (M), IFN-γ secretion by human T cells during killing of CD123 transfected adherent target cells” value in [4] is 2e-09 M.

B2: T017000129 (bispecific antibody)
chain: DVQLVESGGGLVQPGGSLRLSCVASGDVHKINFLGWYRQAPGKEREKVAHISIGDQTDYADSAKGRFTISRDESKNMVYLQMNSLKPEDTAVYFCRAFSRIYPYDYWGQGTLVTVSSGGGGSGGGGSGGGGSGGGGSGGGGSGGGGSGGGGSEVQLVESGGGLVQAGDSLRLSCAASGRTFSSYAMGWFRQAPGKEREFVAAISWSDGSTYYADSVKGRFTISRDNAKNTVYLQMNSLKPEDTAVYYCAADLTSTNPGSYIYIWAYDYWGQGTLVTVSSA
notes: Control: anti-TCR Nanobody linked to the irrelevant anti-RSV Nanobody; also called irrelevant multivalent polypeptide T017000129
Take B2: the IC50 (as a rule, the concentration at which inhibition is half-maximal) in [5] amounted to 520 nM.

B3: T017000116 (bispecific antibody)
chain: EVQLVESGGGLVQAGGSLRLSCAASGITSKINDMGWYRQTPGNYREWVASITATGTTNYRDSVKGRFTISRDNAKSTVYLQMNSLKPEDTTVYYCNTFPPISNFWGQGTLVTVSSGGGGSGGGGSGGGGSGGGGSGGGGSGGGGSGGGGSEVQLVESGGGLVQAGGPLRLSCAASGRTFSSYVMGWFRQAPGKEREFVAAIYWSNGKTQYTDSVKGRFTISGDNAKNTVYLQMNSLNPEDTAVYYCVADKDETGFRTLPIAYDYWGQGTLVTVSSGGGGSGGGGSGGGGSGGGGSGGGGSGGGGSGGGGSEVQLVESGGGLVQPGGSLRLSCVASGDVHKINFLGWYRQAPGKEREKVAHISIGDQTDYADSAKGRFTISRDESKNMVYLQMNSLKPEDTAVYFCRAFSRIYPYDYWGQGTLVTVSS
notes: Multispecific Nanobody polypeptide expressed in Pichia; also called A0110056A10-35GS-A0110055F03-35GS-T0170056G05-FLAG3-HIS6; not shown: C-terminal FLAG3-HIS6 tag
B3: in [6], the “% lysis, redirected cyno T cell mediated killing of KG1a cells, flow cytometry” value amounted to 14% and the “EC50 (M), redirected cyno T cell mediated killing of KG1a cells, flow cytometry” value is 3.7e-10 M. In assay [1], the “EC50 (M), human IL-6 secretion during human T cell mediated killing of CD123 transfected adherent target cells” value was determined as 9.6e-09 M. Further, in assay [2], the “% lysis, redirected human T cell mediated killing of KG1a cells, flow cytometry, E:T 10:1” value is 5% and the “EC50 (M), redirected human T cell mediated killing of KG1a cells, flow cytometry, E:T 10:1” value was determined as 4.2e-10 M. In addition, in [7], the Kd – broadly, a measure of binding affinity in units of concentration – worked out at 0.88 nM. Further, in assay [3], the “% lysis, redirected human T cell mediated killing of MOLM-13 cells, flow cytometry, E:T 10:1” value came out at 17% and the “EC50 (M), redirected human T cell mediated killing of MOLM-13 cells, flow cytometry, E:T 10:1” value worked out at 2.2e-10 M. For the same molecule, the IC50 in assay [8] stood at 5.6 nM. Moreover, the IC50 in [9] turned out to be 1.6 nM. The “EC50 (M), IFN-γ secretion by human T cells during killing of CD123 transfected adherent target cells” value in assay [4] is 8.1e-09 M. For the same molecule, the IC50 in [10] was 1.8 nM. Moreover, in assay [11], the “% lysis, redirected cyno T cell mediated killing of MOLM-13 cells, flow cytometry, E:T 10:1” value came out at 15% and the “EC50 (M), redirected cyno T cell mediated killing of MOLM-13 cells, flow cytometry, E:T 10:1” value is 3.9e-10 M.

B4: T017000138 (bispecific antibody)
chain: DVQLVESGGGLVQPGGSLRLSCVASGDVHKINFLGWYRQAPGKEREKVAHISIGDQTDYADSAKGRFTISRDESKNMVYLQMNSLKPEDTAVYFCRAFSRIYPYDYWGQGTLVTVSSGGGGSGGGGSGGGGSGGGGSGGGGSGGGGSGGGGSEVQLVESGGGLVQAGGSLRLSCAASGITSKINDMGWYRQTPGNYREWVASITATGTTNYRDSVKGRFTISRDNAKSTVYLQMNSLKPEDTTVYYCNTFPPISNFWGQGTLVTVSSGGGGSGGGGSGGGGSGGGGSGGGGSGGGGSGGGGSEVQLVESGGGLVQAGGPLRLSCAASGRTFSSYVMGWFRQAPGKEREFVAAIYWSNGKTQYTDSVKGRFTISGDNAKNTVYLQMNSLNPEDTAVYYCVADKDETGFRTLPIAYDYWGQGTLVTVSSA
B4: in assay [12], the “% lysis, redirected cynomolgus T cell mediated killing of KG1a cells, flow cytometry, E:T 10:1” value worked out at 21%; the “% lysis, redirected human T cell mediated killing of KG1a cells, flow cytometry, E:T 10:1” value was 64%; the “EC50 (M), redirected cynomolgus T cell mediated killing of KG1a cells, flow cytometry, E:T 10:1” value turned out to be 2.8e-11 M; the “EC50 (M), redirected human T cell mediated killing of KG1a cells, flow cytometry, E:T 10:1” value is 1.6e-10 M. In [13], the “EC50 (M), redirected cynomolgus T cell mediated killing of MOLM-13 cells, flow cytometry, E:T 10:1” value worked out at 1.5e-10 M and the “EC50 (M), redirected human T cell mediated killing of MOLM-13 cells, flow cytometry, E:T 10:1” value worked out at 1.1e-10 M.

B5: T017000138 (bispecific antibody)
chain: B4 chain
notes: Multispecific Nanobody polypeptide expressed in Pichia
As for B5, in assay [6], the “% lysis, redirected cyno T cell mediated killing of KG1a cells, flow cytometry” value was 38% and the “EC50 (M), redirected cyno T cell mediated killing of KG1a cells, flow cytometry” value turned out to be 8.8e-11 M. Besides, in assay [1], the “EC50 (M), human IL-6 secretion during human T cell mediated killing of CD123 transfected adherent target cells” value is 3.8e-11 M. For the same molecule, in assay [2], the “% lysis, redirected human T cell mediated killing of KG1a cells, flow cytometry, E:T 10:1” value was determined as 24% and the “EC50 (M), redirected human T cell mediated killing of KG1a cells, flow cytometry, E:T 10:1” value was determined as 2.8e-10 M. In addition, the IC50 in assay [5] came to 440 nM. In assay [3], the “% lysis, redirected human T cell mediated killing of MOLM-13 cells, flow cytometry, E:T 10:1” value was 22% and the “EC50 (M), redirected human T cell mediated killing of MOLM-13 cells, flow cytometry, E:T 10:1” value came to 2.3e-11 M. In assay [8], this molecule returned an IC50 of 12 nM. The molecule further showed an IC50 in assay [9] of 3.6 nM. Also, in assay [4], the “EC50 (M), IFN-γ secretion by cynomolgus T cells during killing of CD123 transfected adherent target cells” value was determined as 8.7e-10 M and the “EC50 (M), IFN-γ secretion by human T cells during killing of CD123 transfected adherent target cells” value is 4e-10 M. This molecule also showed an IC50 in assay [10] of 3.5 nM. Also, in [11], the “% lysis, redirected cyno T cell mediated killing of MOLM-13 cells, flow cytometry, E:T 10:1” value was determined as 47% and the “EC50 (M), redirected cyno T cell mediated killing of MOLM-13 cells, flow cytometry, E:T 10:1” value came out at 1.7e-11 M.
